Assay results taken from patent US9624471B2, “Methods for maturing cardiomyocytes and uses thereof” (UNIVERSITY OF WASHINGTON THROUGH ITS CENTER FOR …, priority 2013, dated 2017).

How the values were obtained:
hESCs-CMs = test: Contractile force and beat frequency measurement on arrays of microposts; assay type: cell-based, human; conditions: let-7 OE CMs; for beat frequency: EV control 1.57±0.1 hz; for average twitch force: EV control 7.77±0.7 nN/cell, P<0.001
Description: Arrays of silicone microposts were fabricated out of polydimethylsiloxane (PDMS) via a previously-described double-casting process using soft lithography from a SU8 master^19. Each micropost within the arrays used for these studies was 6.45 μm in height, 2.3 μm in diameter, and the center to center spacing between adjacent posts was 6 μm. Prior to cell seeding, the tips of these microposts were stamped with 50 μg/ml of mouse laminin (LIFE TECHNOLOGIES™), and the remaining surfaces of the array were fluorescently stained with BSA 594 and blocked with 0.2% Pluronic F-127 (in PBS)^20. CMs that were 1 week post pLKO-let-7 OE or EV lentiviral transfection, were seeded onto these arrays at a density of around 800,000 cells per substrate.
One week following cell seeding, muscle twitches from individual hESCs-CMs were recorded with high-speed video microscopy within a live cell chamber at 37° C. These images were acquired using a NIKON™ Ti-E upright microscope with a 60× water-immersion objective and a Hammamatsu ORCA™ camera. A custom MATLAB™ code was then used to compare each time frame of this video, to a reference fluorescent image, taken at the base plane of the posts. The twitch force at each post was subsequently calculated by multiplying the deflection of the post by the post's bending stiffness (38 nN/μm). The total twitch force produced by the cell was then determined by adding together the twitch force measured at each post beneath the cell. The average spontaneous beating frequency of the cells was determined by locating the time at which each beat reaches a maximum in the total twitch force (using the same MATLAB™ code), calculating the frequency between each sequential beat: 1/(time at which second beat occurs—time at which first beat occurs), and then averaging these frequencies across all of the measured twitch events.

RUES2-CMs = test: Immunocytochemistry (α-actinin staining) and morphological analysis of lentivirally transduced cardiomyocytes; assay type: cell-based, human; conditions: for cell perimeter / cell area: let-7 OE CMs at roughly day 30; for cell perimeter: EV control 108±15 μm, n=50 cells per condition; for cell perimeter / cell area / sarcomere length: P<0.001; for cell area: EV control 380±70 μm^2; for Circularity index (4πArea/(perimeter)^2) / sarcomere length: let-7 OE CMs; for Circularity index (4πArea/(perimeter)^2): EV control 0.41±0.02; for sarcomere length: EV control 1.65±0.02 μm
Description: Undifferentiated human embryonic stem cell (hESCs) lines H7 (NIHhESCC-10-0061) and RUES2 (NIHhESC-09-0013) were expanded using mouse embryonic fibroblast-conditioned medium with 5 ng/ml basic fibroblast growth factor. H7-CMs were derived using previously reported protocols^1-3. RUES2-CMs were used for all functional analyses and these were derived using a cardiac progenitor cell differentiation protocol^4 derived from previously reported monolayer directed differentiation methods^1, 5, 6. In brief, this involves the induction of a monolayer of hESCs with activin A and bone morphogenetic protein-4 (BMP4) under serum- and insulin-free conditions. During the early stages of differentiation, the cells were also exposed to the Wnt agonist CHIR 99021 followed by the Wnt antagonist Xav939. From 7 days of in vitro differentiation, the cells were fed every alternate day with serum-free RPMI-B27 plus insulin media. After 20 days of in vitro differentiation, the cells were trypsinized and replated. Only those cell preparations that had at least 70% cardiac troponin T-positive CMs (as observed by flow cytometry) were used for further experiments. For experiments where the H7-CMs were cultured for around a year, the cells were replated after the 3rd and 11th month from day 0. At the 11th month, FACS analysis for cTnT was conducted and the CMs were split into three parts and were cultured as three independent replicates for another 1.5 months after which they were harvested for RNA extraction. IMR90iPSC-CMs cultured for 1 yr were replated at day 20 and split every 2 months for 12 months before harvesting for RNA extraction. To generate engineered cardiac tissue, the inventors used the procedure reported by Tulloch et al.^2 In brief, day 20 CMs are suspended in the collagen gel at 10,000/μl, and rod-shaped constructs of 25 μl (1 mm radius×8 mm length) were generated by casting in a preformed mold and warming to 37° C. The ends of the mold contain Velcro-like micro-fiber loops, and these become impregnated with gel+cell mixture. These tabs allow the constructs to be maintained under static tension, which facilitates alignment and differentiation of the CMs. The constructs were maintained in the serum-free RPMI-B27 plus glutamine media up to 2 weeks. For let-7 overexpression analysis, the CMs were transduced with the virus carrying the pLKO-let-7 or empty vector control pLKO plasmid at day 12 of the directed differentiation protocol. After overnight transduction the virus was removed, cells were rinsed with PBS and new media added. The samples were analyzed at day 30 from the initiation of differentiation.
All morphological analyses were carried out using at least 50 cells. Cells replated in chamber slides were fixed in 4% paraformaldehyde for 15 minutes followed by PBS wash. The fixed cells were blocked for an hour with 1.5% normal goat serum and incubated O/N with mouse alpha actinin (sigma) primary antibody. The primary antibody was rinsed with PBS and incubated with secondary antibody (Alexa fluor 488 [Goat anti mouse]) for an hour followed by nuclear staining using DAPI. For cell area and perimeter measurements, images were acquired and processed using ZEISS™ AXIO fluorescent microscope and AXIOVISION™ software. For sarcomere length, images were acquired and processed using LEICA™ TCS-SPE confocal microscope and LEICA™ software. These confocal images were used to select 1-2 myofibrils per cell with at least ten continuous, well-recognized alpha-actinin bands and divided the length value by the number of sarcomeres. The images were further analyzed using IMAGE J™ software.
For lenti-let-7 OE constructs, Pri-miR-let-7i and pri-miR-let-7g sequence was amplified from H7 genomic DNA using forward primer for let-7i-TCCGCGTGGTCCCGT; reverse primer for let-7i-ATTGTCCTCCGCGGCGC and forward primer for let-7g-AGAGTTCCTCCAGCGCTCC; reverse primer for let-7g-CCCCACTTGGCAGCTGGC, resulting in 153 bp and 154 bp products, respectively. […]

Molecule	beat frequency (hESCs-CMs) [hz]	average twitch force (hESCs-CMs) [nN/cell]	cell perimeter (RUES2-CMs) [μm]	cell area (RUES2-CMs) [μm^2]	Circularity index (4πArea/(perimeter)^2) (RUES2-CMs)	sarcomere length (RUES2-CMs) [μm]
let-7i: human let-7 family miRNA, SEQ ID NO: 10, overexpressed from pLKO lentiviral pri-miR-let-7i construct (nucleic acid, listed as Homo sapiens) CUGGCUGAGGUAGUAGUUUGUGCUGUUGGUCGGGUUGUGACAUUGCCCGCUGUGGAGAUAACUGCGCAAGCUACUGCCUUGCUA	1.05±0.1	11.32±0.86	300±7.4	1110±101	0.15±0.04	1.70±0.01
let-7g: human let-7 family miRNA, SEQ ID NO: 9, overexpressed from pLKO lentiviral pri-miR-let-7g construct (nucleic acid, listed as Homo sapiens) AGGCUGAGGUAGUAGUUUGUACAGUUUGAGGGUCUAUGAUACCACCCGGUACAGGAGAUAACUGUACAGGCCACUGCCUUGCCA	0.92±0.094	9.28±0.7	302±3	980±95	0.12±0.02	1.69±0.01
